Test system: human dermal fibroblasts
Assay: Adipogenic differentiation of human dermal fibroblasts
Assay type: cell-based
Procedure: Cell Culture—Human dermal fibroblasts isolated from NPS subjects or WT dermal fibroblasts from unaffected control subjects were subjected to adipogenic differentiation using standard protocols. […] Standard transfection methods with expression plasmids were used for in vitro transgenesis.
RNA and Protein Analysis—Standard RNA extraction procedures (RNeasy Mini Kit from Qiagen) were employed. Reverse transcription was carried out using the Superscript III kit (Invitrogen) using the manufacturer's protocol. For gene expression analysis, QPCR was performed using sequence-specific primers and probes from Roche (Universal Probe Library). TBP was used as an internal control for all gene-expression assays. Western blotting was performed using standard methods on plasma or cell culture media using a mouse monoclonal antibody directed against Asprosin, which was purchased from Abnova (Catalog #H00002200-M01). The mouse monoclonal antibody against fibrillin-1 was purchased from Abcam (Catalog #ab3090). […] At that time, media was concentrated using the Amicon Ultra-2 Centrifugal filter unit before proceeding with western blotting.

B1: recombinant asprosin: 146 amino acid E. coli expressed fusion protein: 6 amino acid N-terminal His tag and 140 amino acid wild type asprosin (FBN1 2732-2871) (protein)
chain: HHHHHHSTNETDASNIEDQSETEANVSLASWDVEKTAIFAFNISHVSNKVRILELLPALTTLTNHNRYLIESGNEDGFFKINQKEGISYLHFTKKKPVAGTYSLQISSTPLYKKKELNQLEDKYDKDYLSGELGDNLKMKIQVLLH
Question: What does the source list for B1?
Answer: NPS associated fat differentiation and inflammogenic defects (polypeptide added to the media of mutant cells (10 ug, 7 days), FIG. 15): rescued; adipogenic differentiation in WT cells (recombinant asprosin added to culture media (60 nanomolar), 7 days adipogenic induction, FIG. 4G): promoted adipogenic differentiation; adipogenic defect in NPS mutant cells (recombinant asprosin added to culture media (60 nanomolar), 7 days, FIG. 4H): sufficient to rescue the adipogenic defect
